Paper PMC3044691
Where two headings read alike, the source gives them in different places.

Experiments:
[1] = target: integrin α4β7, P13612;P26010; assay: steady-state binding assay on primary α4β7+/CD4+ T-cells (flow cytometry, MFI); conditions: read off a plot
[2] = target: integrin α4β7 (human (endogenous in primary CD4+ T cells)) (UniProt P13612); assay: flow cytometry on cells; α4β7-reactivity: biotinylated gp120 on retinoic acid-cultured primary CD4+ T cells with CD4 masked by unlabeled mAb Leu3A (α4 mAb HP2/1 as specificity control); HBS with 100 µM CaCl2 and 1 mM MnCl2, on ice; Neutravidin PE; MFI of the CD45RO+/CCR5+ gate; steady state
[3] = target: integrin α4β7 (human (endogenous in primary CD4+ T cells)) (UniProt P13612); assay: as above; remark: listed apart in the source
[4] = first point, plotted at x = 0 µg gp120, parent: est. 20

92Ug037 w.t. gp120 (subtype A) N133Q was tested, and the response ([1]; parent: est. 27) was 72 MFI.
92Ug037 w.t. gp120 (subtype A) N137Q showed a response ([1]; parent: est. 27) of 160 MFI.
“92Ug037 w.t. gp120 (subtype A) N187Q; N188Q” gave a response ([1]; parent: est. 27) of 540 MFI.
92Ug037N144Q gp120 (natural protein) gave a fold increase in α4β7-reactivity over w.t. 92Ug037 [2] of 20 fold.
For 92Ug037N355Q gp120 (natural protein), the fold increase in α4β7-reactivity over w.t. 92Ug037 [2] was 27 fold.
With 92Ug037N385Q gp120 (natural protein) the fold increase in α4β7-reactivity over w.t. 92Ug037 [2] was 8 fold.
Substance 93MW959 w.t. gp120 (subtype C) N139Q has a response ([1]; parent: est. 300) of 500 MFI.
With 93MW959 w.t. gp120 (subtype C) N145Q the response ([1]; parent: est. 300) was 550 MFI.
Substance AN1 N204Q gp120 has a fold increase in α4β7-reactivity over AN1 w.t. expressed in CHO-S cells [2] of 23 fold.
With AN1 NN140/143QQ gp120 the fold increase in α4β7-reactivity over AN1 w.t. expressed in CHO-S cells [2] was 25 fold.
Substance AN1 NN140/143QQ,N204Q gp120 has a fold increase in α4β7-reactivity over AN1 w.t. expressed in CHO-S cells [2] of 96 fold.
For “AN1 w.t. gp120 expressed in CHO lec1 cells”, the fold α4β7-reactivity over CHO S AN1 w.t. gp120 [3] was > 100 fold and the fold α4β7-reactivity over CHO S AN1 w.t. gp120 [2] was 100 fold.
Work on “QA203M41 chimeric gp120 (V1/V2 of QA203M41 in a Q23 backbone) N22Q; N25Q” yielded a response [1, 4] of 300 MFI, a response ([1]; gp120 0.5 µg, parent: est. 20) of 270 MFI and a response ([1]; gp120 1 µg, parent: est. 25) of 580 MFI. It also gave a response ([1]; gp120 1 µg, parent: est. 45) of 600 MFI, a response ([1]; gp120 2 µg, parent: est. 30) of 1400 MFI and a response ([1]; gp120 2 µg, parent: est. 110) of 1300 MFI. It also gave a response ([1]; gp120 4 µg, parent: est. 50) of 1700 MFI and a response ([1]; gp120 4 µg, parent: est. 230) of 2000 MFI.
For “QA203M41 chimeric gp120 (V1/V2 of QA203M41 in a Q23 backbone) N22Q; N25Q; N66Q; N67Q”, the response [1, 4] was 200 MFI, the response ([1]; gp120 1 µg, parent: est. 25) was 410 MFI and the response ([1]; gp120 2 µg, parent: est. 30) was 750 MFI. For the same substance, the response ([1]; gp120 4 µg, parent: est. 50) was 1300 MFI.
For “QA203M41 chimeric gp120 (V1/V2 of QA203M41 in a Q23 backbone) N66Q; N67Q”, the response [1, 4] was 50 MFI, the response ([1]; gp120 2 µg, parent: est. 30) was 180 MFI and the response ([1]; gp120 4 µg, parent: est. 50) was 280 MFI.
“Z205F.ENV1.1 0Mfounder gp120 (natural protein)” was tested, and the fold bound to α4β7 over bound to CD4 [2] was 37 fold, the fold α4β7-reactivity over the 0-month escape gp120 [2] was 8 fold and the fold α4β7-reactivity over the 8- and 38-month escape gp120s [2] was > 17 fold.
